Substitutions are numbered along the chain they refer to. Names and notes keep the numbering of the source.
T1: human ANG2-RBD-Fc-region fusion (human, UniProt O15123 275-496, limits assumed)
T1 construct: not shown: Fc-region
T1 sequence: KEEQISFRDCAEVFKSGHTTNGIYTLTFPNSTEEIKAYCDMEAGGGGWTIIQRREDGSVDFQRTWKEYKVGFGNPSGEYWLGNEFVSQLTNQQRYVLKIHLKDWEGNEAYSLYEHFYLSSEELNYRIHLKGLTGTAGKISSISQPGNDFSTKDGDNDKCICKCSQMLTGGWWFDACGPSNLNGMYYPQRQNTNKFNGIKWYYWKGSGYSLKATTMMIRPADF

T2: ANG2 (R&D Systems, Cat#623-CF) (human, UniProt O15123 19-496)
T2 sequence: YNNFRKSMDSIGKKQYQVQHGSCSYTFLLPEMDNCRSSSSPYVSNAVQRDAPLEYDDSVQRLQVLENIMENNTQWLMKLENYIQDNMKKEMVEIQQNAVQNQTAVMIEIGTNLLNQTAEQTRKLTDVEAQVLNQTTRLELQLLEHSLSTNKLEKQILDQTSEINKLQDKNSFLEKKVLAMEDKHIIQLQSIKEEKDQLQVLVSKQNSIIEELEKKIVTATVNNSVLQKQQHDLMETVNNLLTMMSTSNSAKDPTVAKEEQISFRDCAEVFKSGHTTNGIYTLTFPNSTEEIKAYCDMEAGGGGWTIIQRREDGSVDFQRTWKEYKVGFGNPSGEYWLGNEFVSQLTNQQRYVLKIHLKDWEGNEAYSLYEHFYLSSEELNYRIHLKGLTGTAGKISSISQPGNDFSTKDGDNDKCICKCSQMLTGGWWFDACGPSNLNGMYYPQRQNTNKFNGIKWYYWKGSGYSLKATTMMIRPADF

B1: 0025 (Fab)
heavy: not shown
light: SYVLTQPPSVSVAPGQTARITCGGNNIGSKSVHWYQQKPGQAPVLVVYDDSDRPSGIPERFSGSNSGNTATLTISRVEAGDEADYYCQVWDSSSDHWVFGGGTKLTVLSSASTKGPSVFPLAPSSKSTSGGTAALGCLVKDYFPEPVTVSWNSGALTSGVHTFPAVLQSSGLYSLSSVVTVPSSSLGTQTYICNVNHKPSNTKVDKKVEPKSC
notes: CrossFab CL-CH1, valency 1; differences VH: T28N, T30V; VL: wt
B2: XAng2-0099 (antibody)
heavy: not shown
light: B1 light
notes: CrossMab CL-CH1, valency for ANG2 2; differences VH: S100dP, G100jA, T28N, T30A; VL: wt
B3: Xang2-0165 (bispecific antibody, human IgG1, kappa, L234A L235A)
heavy 1: not shown
light 1: B1 light with D50T
heavy 2: EVQLVESGGGLVQPGGSLRLSCAASGYDFTHYGMNWVRQAPGKGLEWVGWINTYTGEPTYAADFKRRFTFSLDTSKSTAYLQMNSLRAEDTAVYYCAKYPYYYGTSHWYFDVWGQGTLVTVSSASTKGPSVFPLAPSSKSTSGGTAALGCLVKDYFPEPVTVSWNSGALTSGVHTFPAVLQSSGLYSLSSVVTVPSSSLGTQTYICNVNHKPSNTKVDKKVEPKSCDKTHTCPPCPAPEAAGGPSVFLFPPKPKDTLMASRTPEVTCVVVDVSHEDPEVKFNWYVDGVEVHNAKTKPREEQYNSTYRVVSVLTVLAQDWLNGKEYKCKVSNKALGAPIEKTISKAKGQPREPQVYTLPPCRDELTKNQVSLWCLVKGFYPSDIAVEWESNGQPENNYKTTPPVLDSDGSFFLYSKLTVDKSRWQQGNVFSCSVMHEALHNAYTQKSLSLSPGK
light 2: not shown
notes: ANG2/VEGF bispecific CrossMab CL-CH1, valency for ANG2 1; ANG2 VH: S100dP, G100jA, T30A, T28N; VL: D50T; VEGF: wt2
B4: XAng2-0017 (Fab)
heavy: not shown
light: B1 light
notes: CrossFab CL-CH1, valency 1; VL: wt
B5: 0040 (Fab)
heavy: not shown
light: B1 light
notes: CrossFab CL-CH1, valency 1; differences VH: S100dP, G100jA, T28N, T30V; VL: wt
B6: XAng2-0026 (Fab)
heavy: not shown
light: B1 light
notes: CrossFab CL-CH1, valency 1; differences VH: T28N, T30A; VL: wt
B7: 0058 (Fab)
heavy: not shown
light: B1 light
notes: CrossFab CL-CH1, valency 1; differences VH: S100dP, G100jA, T28N, T30A, D100bT; VL: wt
B8: XAng2-0090 (Fab)
heavy: not shown
light: B1 light with D50T
notes: CrossFab CL-CH1, valency 1; differences VH: S100dP, G100jA, T28N, T30A; VL: D50T
B9: XAng2-0101 (antibody)
heavy: not shown
light: B1 light with D50T
notes: CrossMab CL-CH1, valency for ANG2 2; differences VH: S100dP, G100jA, T28N, T30A, D100bE; VL: D50T
B10: 0042 (Fab)
heavy: not shown
light: B1 light
notes: CrossFab CL-CH1, valency 1; differences VH: S100dP, G100jA, T28N, T30K; VL: wt
B11: 0027 (Fab)
heavy: not shown
light: B1 light
notes: CrossFab CL-CH1, valency 1; differences VH: T28N, T30K; VL: wt
B12: XAng2-0100 (antibody)
heavy: not shown
light: B1 light with D50T
notes: CrossMab CL-CH1, valency for ANG2 2; differences VH: S100dP, G100jA, T28N, T30A; VL: D50T
B13: XAng2-0041 (Fab)
heavy: not shown
light: B1 light
notes: CrossFab CL-CH1, valency 1; differences VH: S100dP, G100jA, T28N, T30A; VL: wt
B14: 0061 (Fab)
heavy: not shown
light: B1 light with D50T
notes: CrossFab CL-CH1, valency 1; differences VH: S100dP, G100jA, T28N, T30A, D100bT; VL: D50T
B15: Xang2-0166 (bispecific antibody, human IgG1, kappa, L234A L235A)
heavy 1: not shown
light 1: B1 light with D50T
heavy 2: B3 heavy 2
light 2: not shown
notes: ANG2/VEGF bispecific CrossMab CL-CH1, valency for ANG2 1; ANG2 VH: S100dP, G100jA, T30A, T28N, D100bS; VL: D50T; VEGF: wt2
B16: 0028 (Fab)
heavy: not shown
light: B1 light
notes: CrossFab CL-CH1, valency 1; differences VH: T30K; VL: wt
B17: XAng2-0156 (Fab)
heavy: not shown
light: B1 light with S1Q, Y2P, V3G, D50T, W97Y, G101T, L105V
notes: CrossFab CL-CH1, valency 1; differences VH: S100dP, G100jA, T28N, T30A, D100bS; VL: D50T
B18: 0060 (Fab)
heavy: not shown
light: B1 light with D50T
notes: CrossFab CL-CH1, valency 1; differences VH: S100dP, G100jA, T28N, T30A, D100bE; VL: D50T
B19: XAng2-0033 (Fab)
heavy: not shown
light: B1 light
notes: CrossFab CL-CH1, valency 1; differences VH: T28N, S100dP, G100jA; VL: wt
B20: 0057 (Fab)
heavy: not shown
light: B1 light
notes: CrossFab CL-CH1, valency 1; differences VH: S100dP, G100jA, T28N, T30A, D100bE; VL: wt
B21: XAng2-0155 (Fab)
heavy: not shown
light: B1 light with S1Q, Y2P, V3G, D50T, W97Y, G101T, L105V
notes: as for B8
B22: 0074 (Fab)
heavy: not shown
light: B1 light
notes: CrossFab CL-CH1, valency 1; differences VH: S100dP, G100jA, T28N, T30A, D100bS; VL: wt
B23: XAng2-0075 (Fab)
heavy: not shown
light: B1 light with D50T
notes: as for B17

How the values were obtained:
[1] = biological target: T1, human ANG2-RBD-Fc-region fusion; test: SPR, human ANG2-RBD-Fc captured, 1:1 model
[2] = biological target: T1, human ANG2-RBD-Fc-region fusion; test: SPR, human ANG2; bivalent CrossMab, avidity
[3] = biological target: T1, human ANG2-RBD-Fc-region fusion; test: SPR, human ANG2; bivalent CrossMab, avidity; remark: listed apart in the source
[4] = biological target: T1, human ANG2-RBD-Fc-region fusion; test: SPR, human ANG2; ANG2/VEGF bispecific CrossMab
[5] = biological target: T1, human ANG2-RBD-Fc-region fusion; test: SPR, human ANG2-RBD-Fc captured, 1:1 model; remark: listed apart in the source
Description: (§1) HBS-N (10 mM HEPES, 150 mM NaCl pH 7.4, GE Healthcare) was used as running buffer during the immobilization procedure. For the following kinetic characterization, sample and running buffer was HBS-P (10 mM HEPES, 150 mM NaCl pH 7.4, 0.05% Surfactant P20; GE Healthcare). The flow cell was set to 25° C.—and the sample block was set to 12° C.—and primed with running buffer twice prior to kinetic characterization.
(§2) Association was measured by injection of the Cross-Fabs in various concentrations in solution for 90 sec. at a flow rate of 90 μl/min starting with 300 nM in serial 1:3 dilutions. The dissociation phase was monitored for up to 600 sec. and triggered by switching from the sample solution to running buffer. All surfaces were regenerated by 60 sec. washing with a 3 M MgCl₂ solution at a flow rate of 5 μl/min. Bulk refractive index differences were corrected by subtracting the response obtained from an anti-human IgG antibody (Fc) surface. Blank injections were also subtracted (=double referencing). For calculation of KD and other kinetic parameters the Langmuir 1:1 model was used.

[6] = biological target: T2, ANG2 (R&D Systems, Cat#623-CF); test: cell-based or functional assay
[7] = biological target: T3, cynomolgus ANG2-RBD-Fc-region fusion (cynomolgus); test: SPR, cynomolgus ANG2-RBD-Fc captured, 1:1 model
T3 construct: domain: RBD
Description: as §1, §2

Row | Binder | koff [1] | kon [1] | t1/2 [1] | further results
1 | B1 | 0.0702 s⁻¹ | 1.87e+06 M⁻¹ s⁻¹ | 10 s | 
2 | B2 |  |  |  | koff [2]: 0.00011 s⁻¹; kon [2]: 2.61e+07 M⁻¹ s⁻¹; t1/2 (S) [2]: 1.75 h; koff [3]: 0.00011 s⁻¹; kon [3]: 2.61e+07 M⁻¹ s⁻¹
3 | B3 |  |  |  | Kd [4]: 4 nM; koff [4]: 0.00112 s⁻¹; kon [4]: 302000 M⁻¹ s⁻¹; t1/2 [4]: 619 s
4 | B4 | 0.0357 s⁻¹ | 3.03e+06 M⁻¹ s⁻¹ | 19 s | 
5 | B5 | 0.00592 s⁻¹ | 2.59e+06 M⁻¹ s⁻¹ | 117 s | Kd [1]: 2.3 nM
6 | B6 | 0.0371 s⁻¹ | 2.03e+06 M⁻¹ s⁻¹ | 19 s | 
7 | B7 | 0.0383 s⁻¹ | 1.8e+06 M⁻¹ s⁻¹ | 18 s | 
8 | B8 | 0.00253 s⁻¹ | 2.16e+06 M⁻¹ s⁻¹ | 274 s | koff [5]: 0.00253 s⁻¹; kon [5]: 2.16e+06 M⁻¹ s⁻¹; t½ [5]: 274 s; relative biological activity [%] [6]: 706%; Kd [7]: 2 nM; koff [7]: 0.00308 s⁻¹; kon [7]: 2.02e+06 M⁻¹ s⁻¹; t½ [7]: 225 s
9 | B9 |  |  |  | koff [2]: 0.00012 s⁻¹; kon [2]: 1.83e+07 M⁻¹ s⁻¹; t1/2 (S) [2]: 1.6 h; koff [3]: 0.00012 s⁻¹; kon [3]: 1.83e+07 M⁻¹ s⁻¹
10 | B10 | 0.0128 s⁻¹ | 3.22e+06 M⁻¹ s⁻¹ | 54 s | 
11 | B11 | 0.165 s⁻¹ | 2.4e+06 M⁻¹ s⁻¹ | 4 s | 
12 | B12 |  |  |  | koff [2]: 0.000167 s⁻¹; kon [2]: 2.06e+07 M⁻¹ s⁻¹; t1/2 (S) [2]: 1.15 h; koff [3]: 0.000167 s⁻¹; kon [3]: 2.06e+07 M⁻¹ s⁻¹
13 | B13 | 0.00317 s⁻¹ | 3.85e+06 M⁻¹ s⁻¹ | 219 s | koff [5]: 0.00317 s⁻¹; kon [5]: 3.85e+06 M⁻¹ s⁻¹; t½ [5]: 219 s; relative biological activity [%] [6]: 838%; Kd [7]: 2 nM; koff [7]: 0.0036 s⁻¹; kon [7]: 2.14e+06 M⁻¹ s⁻¹; t½ [7]: 193 s
14 | B14 | 0.0314 s⁻¹ | 1.8e+06 M⁻¹ s⁻¹ | 22 s | 
15 | B15 |  |  |  | Kd [4]: 49 nM; koff [4]: 0.0135 s⁻¹; kon [4]: 275000 M⁻¹ s⁻¹; t1/2 [4]: 51 s
16 | B16 | 0.259 s⁻¹ | 1.81e+06 M⁻¹ s⁻¹ | 3 s | 
17 | B17 | 0.0031 s⁻¹ | 675000 M⁻¹ s⁻¹ |  | t1/2 (S) [1]: 224 s
18 | B18 | 0.0786 s⁻¹ | 3.72e+06 M⁻¹ s⁻¹ | 9 s | 
19 | B19 | 0.00225 s⁻¹ | 753000 M⁻¹ s⁻¹ | 308 s | 
20 | B20 | 0.0948 s⁻¹ | 3.28e+06 M⁻¹ s⁻¹ | 7 s | 
21 | B21 | 0.0319 s⁻¹ | 746000 M⁻¹ s⁻¹ |  | t1/2 (S) [1]: 22 s
22 | B22 | 0.0366 s⁻¹ | 2.27e+06 M⁻¹ s⁻¹ | 19 s | 
23 | B23 | 0.031 s⁻¹ | 2.22e+06 M⁻¹ s⁻¹ | 22 s | koff [5]: 0.031 s⁻¹; kon [5]: 2.22e+06 M⁻¹ s⁻¹; t½ [5]: 22 s; relative biological activity [%] [6]: 128%; Kd [7]: 24 nM; koff [7]: 0.0325 s⁻¹; kon [7]: 1.34e+06 M⁻¹ s⁻¹; t½ [7]: 21 s

— patent US20170247441A1 (Hoffmann-La Roche, published 2017)
